According to article PMC3017645 (Journal of molecular biology, 2010):
One block for each binder: values may come before it.

Target: T1, Nnf1p-6xHis (budding yeast (S. cerevisiae), UniProt P47149 1-201)
T1 sequence (looked up): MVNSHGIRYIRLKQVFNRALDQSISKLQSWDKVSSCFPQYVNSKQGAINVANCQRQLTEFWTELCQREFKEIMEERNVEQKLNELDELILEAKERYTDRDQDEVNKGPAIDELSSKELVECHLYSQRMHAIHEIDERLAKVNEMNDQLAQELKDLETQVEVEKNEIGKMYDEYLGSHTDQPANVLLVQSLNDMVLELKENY
Experiment: co-purification of co-expressed subunits

stoichiometry N: 1
B1: Nsl1p (natural protein, budding yeast (S. cerevisiae), UniProt Q12143 1-216, looked up)
chain: MSQGQSKKLDVTVEQLRSIYHQFHDILEEKTDLHLPKKEYDDDAVRREVQIQLQEFLLSAMTMASKSLEVVNADTVGKTVKQLIMESQEKYMEPFDLDLNEQVRKMYQEWEDETVKVAQLRQTGPAKINEVYNNSKDEYLAQLDGRIGVLQARMMQQQSADHDDSTDDADDHINWEHIKQDYVASLNELYQTQQDLPKVRYNVEKVKRLMDFLEED

stoichiometry N: 1
B2: Dsn1p (natural protein, budding yeast (S. cerevisiae), UniProt P40568 1-576, looked up)
chain: MSLEPTQTVSGTPPMLHQRTHKQVYPLRMETIPILESDSKATLQSNEPTQKDEEETEYFENKQSVSNLSPDLKFKRHKNKHIQGFPTLGERLDNLQDIKKAKRVENFNSSAPIADDNHSGDATANATANATANATANVNASAMPAPYMPYYYYYHPMNAPTPAMIPYPGSPMHSIMPNSSLQPFYSQPTAAGGPDMTTPQNISSSQQLLPAPQLFPYGSFHQQQLQQPHYIQRTRERKKSIGSQRGRRLSMLASQANGGSTIISPHKDIPEEDFYTVVGNASFGKNLQIRQLFNWCLMRSLHKLELKAKNQEEEGELEHLTKKSKLESTKAETDYVDPKRLAMVIIKEFVDDLKKDHIAIDWEDEEKYEDEDEEKILDNTENYDDTELRQLFQENDDDDDDDDEVDYSEIQRSRRKFSERRKALPKEPKKLLPNSKNVENTKNLSILTSKVNAIKNEVKEWAVTLDTSRPDLEWQELTSFSSQPLEPLSDTEEPDLAIADVETKLETKVDELRYQSHILNSHSLALNEITNSKVNKLNIETMRKISSETDDDHSQVINPQQLLKGLSLSFSKKLDL

stoichiometry N: 1
B3: Mtw1p (natural protein, budding yeast (S. cerevisiae), UniProt P39731 1-289, looked up)
chain: MSAPTMRSTSILTEHLGYPPISLVDDIINAVNEIMYKCTAAMEKYLLSKSKIGEEDYGEEIKSGVAKLESLLENSVDKNFDKLELYVLRNVLRIPEEYLDANVFRLENQKDLVIVDENELKKSEEKLREKVNDVELAFKKNEMLLKRVTKVKRLLFTIRGFKQKLNELLKCKDDVQLQKILESLKPIDDTMTLLTDSLRKLYVDSESTSSTEEVEALLQRLKTNGKQNNKDFRTRYIDIRTNNVLRKLGLLGDKEDEKQSAKPDARTQAGDIVSIDIEEPQLDLLDDVL
